Test results taken from the supplement of paper PMC9170038.

Test system: MS2 coat protein
Test: apparent KD of MS2 coat protein; designed switch direction (-1 OFF switch, 1 ON switch): -1; higher = weaker reporter binding
How it was run: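 Designed RNA switches with common flanks were made on Illumina chips by stalled E. coli RNA polymerase. Titration with SNAP-549-labelled MS2 coat protein doubled from 0.7 or 1.5 nM up to 3 µM. Apparent KD is each design's median over clusters after curve-fitting normalised fluorescence.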

[1] = Eterna round: R95, input ligand: FMN 200 uM
[2] = Eterna round: R95, input ligand: microRNA oligo, concentration not stated
[3] = Eterna round: R95, input ligand: none
[4] = input ligand: microRNA oligo, concentration not stated

Sequence	apparent KD of MS2 coat protein (input ligand: FMN 200 uM)	apparent KD of MS2 coat protein (input ligand: none)	apparent KD of MS2 coat protein [1]	apparent KD of MS2 coat protein [2]	apparent KD of MS2 coat protein [3]	apparent KD of MS2 coat protein [4]
CCCAUGUCAGGAUAUUAAUUGGGCGGGAAAUCCCACCCACUUGAGAAGGGACAUGAGGAUCACCCAUGUAAAAC [Indila] (Eterna round: R97, puzzle: Exclusion 4)	66.6 nM	629 nM	–	–	–	–
AGUAGUUCAGGAUAUGAUGUUAAGUACAUGAGGAUCACCCAUGUAGGUCCUGGAUUUACAUCAGAAGGGAAUAACU [JR_Ex5_Sub083] (Eterna round: R97, puzzle: Exclusion 5)	60.4 nM	23.6 nM	–	–	–	–
CGUGGACAUAACAAGCUUUACAUGAGGAUCACCCAUGUGAUCAUGCUCGUCUUAUGGUCCACGAAUUAAUUAAUUAA [Stov1/6-C1] (Eterna round: R97, puzzle: Sensor, turn-off variant 1)	19.5 nM	19.9 nM	–	–	–	–
AUAUCCAGAGGAUAUCCGCACGGACACAUGAGGAUCACCCAUGUUUUCAUGAACGUUGCCGGAGAAGGCUGAGGAA [Eternabot (Original) Solution 10] (Eterna round: R97, puzzle: Exclusion 5)	79.7 nM	69.7 nM	–	–	–	–
GGCAUGUGAGGAUAUGCGAAGGGAAGGAGAGGGAAAGAGAAGCAGAAGGCACAUGAGGAUCACCCAUGUAAGGG [AK-MS2ROC-r4-exclusion4-8] (Eterna round: R97, puzzle: Exclusion 4)	34.1 nM	203 nM	–	–	–	–
UCGAUGUGAGGAUAUAUUUUUAUUAGUCCUUAUGUUUUAUAACUUGAGGAUCACCCAAGUAGAAGGCGCGACGU [JR_Ex2_Sub061] (Eterna round: R97, puzzle: Exclusion 2)	32.6 nM	34.6 nM	–	–	–	–
CCGAGCAGACGGAGAUCCAACAUGAGGAUCACCCAUGUCUCAAAAGCUUUUUGCUUGUCUUAUUCUCCUCUGUUCUC [Qureorxe] (puzzle: Sensor v3, turn-off variant 1)	–	–	12.5 nM	29.2 nM	11.3 nM	–
UAUUAGCAAGCAACUGGGUACAUGAGGAUCACCCAUGUGCUCGUCUUAUAAGGUACUGUGACGAAAGUCACGGUACC [mod--Eli] (Eterna round: R97, puzzle: Sensor, turn-off variant 1)	17.4 nM	16.6 nM	–	–	–	–
UUCAGACAUGAGGAUCACCCAUGUGAGGAUAUGAUGCGAUCGUCGAAAGACGAUAGCAUCAGAAGGCACGUAUG [Fiskers Ex 1 - 16] (puzzle: Exclusion 1)	–	–	–	97.8 nM	–	–
UUCCUCGUUGUGAGGAUAUCGUCCUCUUUUUGUUACGAGAAGGCACAUGAGGAUCACCCAUGUUUCUUGAUGUU [JR_BMOE4_Sub070] (puzzle: Brourd's mod of Exclusion 4)	–	–	–	16.7 nM	–	–
UCUGUUGAAGGAUAUGCGUAACGAGUUACGGCUCGAGGUCUACAUGAGGAUCACCCAUGUAGAAGGUCAUCAGA [EX2 #70] (Eterna round: R97, puzzle: Exclusion 2)	15.8 nM	15.1 nM	–	–	–	–
AAGUAUAGAGGAUAUAGUAGUUACAACAUGAGGAUCACCCAUGUUCUUCAUAGCGUAGAUCUAGAAGGCUGAUAAA [EX-5 Malc#30] (puzzle: Exclusion 5)	–	–	265 nM	110 nM	119 nM	–
GGUGCGUUUGUGAGGAUAUGCUGGUCCUUGGUUCUGCAGAAGGCACAUGAGGAUCACCCAUGUGGUGUCGUACC [salish99_Bmod_Ex4_042] (puzzle: Brourd's mod of Exclusion 4)	–	–	–	64.5 nM	–	–
GGUUGGCGAGGAUAUACAUGAGGAUCACCCAUGUGAGAGAAAAAAGUGAGGAAGAAAAGUAGAAGGCGCUGACG [salish99-ex3-champ] (puzzle: Exclusion 3)	–	–	412 nM	49.3 nM	44.5 nM	–
GCCUCUCAUGUGAGGAUAUCCGGACUAUACAGACAGGAGAAGGCACAUGAGGAUCACCCAUGUCACGCACACUU [BmEX4 B.5] (Eterna round: R97, puzzle: Brourd's mod of Exclusion 4)	27.1 nM	189 nM	–	–	–	–
UGUUGUUCAGGAUAUGAUGUAUAAUACAUGAGGAUCACCCAUGUAGAUCCUGAAUUAACAUCAGAAGGGAAUAUUG [salish99_ex5_r4_101] (Eterna round: R97, puzzle: Exclusion 5)	19 nM	17 nM	–	–	–	–
UACAUGAGGAUCACCCAUGUUUUGUCGUGUAUGGUAUUUAUCUAGGAUAUCAAUGUGUUUAUUUAUGAGAAGGAGAAUAUUAAU [JMF's solution 39] (Eterna round: R96, puzzle: Exclusion NG 3)	40 nM	35.4 nM	–	–	–	31.8 nM
GUUACUAUUGUGAGGAUAUACUUAUUAAUAAAUAGGUAGAAGGCACAUGAGGAUCACCCAUGUUUUAACUUUUC [lam1] (Eterna round: R97, puzzle: Brourd's mod of Exclusion 4)	96.8 nM	24.9 nM	–	–	–	–

Sequence	apparent KD of MS2 coat protein (input ligand: FMN 200 uM)	apparent KD of MS2 coat protein (input ligand: none)	apparent KD of MS2 coat protein [1]	apparent KD of MS2 coat protein [2]	apparent KD of MS2 coat protein [3]	apparent KD of MS2 coat protein [4]
UUGAAGUCAUCAGGAUAUAGUAUAAAAGACAUAUAUUUUUUCAAACAUGAGGAUCACCCAUGUCGCUAGAAGGGAUUAUAGAUU [JR_ExcNG2_Sub081] (Eterna round: R96, puzzle: Exclusion NG 2)	–	–	–	–	–	34.7 nM
UAGAUGGGAGGAUAUGCGUAGAUACGGAUUCGUGUGGUGCUACAUGAGGAUCACCCAUGUAGAAGGCCCGUCUU [JL-ex2-2.27 Mayanne mod] (puzzle: Exclusion 2)	–	–	–	12 nM	–	–
GAUCAACAUGAGGAUCACCCAUGUGAGGAUAUGCGAGAAUAGACUUCGGUCAGAUAGAGCAGAAGGCGCAGAUA [EX1 #3] (Eterna round: R97, puzzle: Exclusion 1)	63.7 nM	37.9 nM	–	–	–	–
CAGUACUGAGGAUAUACAUGAGGAUCACCCAUGUGUUCCAGCUAGGAAACUAGCAAAUGUAGAAGGCAGUACUG [salish99_ex3_r3_089 (STABLE!)] (puzzle: Exclusion 3)	–	–	94.1 nM	217 nM	234 nM	–
UGCAGACGAGGAUAUAAAUUUGAUAACAUGAGGAUCACCCAUGUGAUCGAUAGAUCAAAUUUAGAAGGUGUCUGCA [E5/7-B2] (Eterna round: R97, puzzle: Exclusion 5)	443 nM	576 nM	–	–	–	–
UAAAUGUGAGGAUAUUCGAAGAACACGGAGACGUGUUUUUCGGAGAAGGCACAUGAGGAUCACCCAUGUUCCUU [Mat - Exclusion 4 - JL Mod - D6] (Eterna round: R97, puzzle: Exclusion 4)	241 nM	29.8 nM	–	–	–	–
AGGGACGUAGGAUAUACCGUGUAGUACAUGAGGAUCACCCAUGUUUGCCUCAUAGUCCACGUAGAAGGAUGUGACA [Eternabot (L2) Solution 37] (Eterna round: R97, puzzle: Exclusion 5)	70.9 nM	64.1 nM	–	–	–	–
UUCCGGCGUGUAGGAUAUGGUUCCGUUUCGGUUCCAGAAGGACAUGAGGAUCACCCAUGUGCCUGUCGUCGGUCGUCACCGGGC [salish99_ExNG1_r04_219] (Eterna round: R96, puzzle: Exclusion NG 1)	22.3 nM	15.3 nM	–	–	–	13.3 nM
UUAAUGGCUGUGAGGAUAUCGGAUAGAUAGAUAUUCGAGAAGGUACAUGAGGAUCACCCAUGUGUGAUUAGAGA [Brourd's EX4 #64] (Eterna round: R97, puzzle: Brourd's mod of Exclusion 4)	269 nM	244 nM	–	–	–	–
UGAUCCGGUGUGAGGAUAUUUAACCUCAUAUAGGUAAAGAAGGCACAUGAGGAUCACCCAUGUCGAGGCCCGAU [Eternabot (L2) Solution 74] (Eterna round: R97, puzzle: Brourd's mod of Exclusion 4)	209 nM	168 nM	–	–	–	–
UCGGCGCGAGGAUAUGCGGUUGCUCCCUAGGGUCGGAGCGUACAUGAGGAUCACCCAUGUAGAAGGCGCGCCGC [Apr-15 SS2-34] (puzzle: Exclusion 2)	–	–	–	12.4 nM	–	–
UGUAGAUCUACGCUUGCGUGGAUCUGCUUAGCAAGUGAUACAUGAGGAUCACCCAUGUCCUCAUUUGCUCGUCUUAU [JL turnoff v2 99.01] (puzzle: Sensor v3, turn-off variant 2)	–	–	15.7 nM	212 nM	14 nM	–
UGAGAACAUGAGGAUCACCCAUGUAAGGAUAUGCGAAGAGUUCGGAGAGGUUGAGGAGGCAGAAGGUACAGGAG [JR_Exclu1_Sub043] (puzzle: Exclusion 1)	–	–	46.8 nM	35.8 nM	58.7 nM	–
UAAUUGAUUAAUAGAUUAUACAUGAGGAUCACCCAUGUAGGUCCUACGUGCCAUUUAAGUAGCUCGUCUUAUUCCCA [Sensor-V1 #67] (Eterna round: R97, puzzle: Sensor, turn-off variant 1)	40.2 nM	45.6 nM	–	–	–	–
UUAAAGGCGGAGGAUAUGUAGGCUUUCGAGUCGACAGAAGGCCGCACAUGAGGAUCACCCAUGUGGUCCUCCAA [EX6 A.20] (Eterna round: R97, puzzle: Exclusion 6)	219 nM	51.8 nM	–	–	–	–
UGUUGUCGCGCAGGAUAUGCAUGAGGAUCACCCAUGCAACCACAUUUAACAUGAGGAUCACCCAUGUAGAAGGGCGGGACAACU [pwkr exNG2 2xF5 1xFMN.3] (Eterna round: R96, puzzle: Exclusion NG 2)	89 nM	31.4 nM	–	–	–	25 nM
CGUUGGCGAGGAUAUACAUGAGGAUCACCCAUGUGAGAGAAAAAAGUGAGGAAGAAAAGUAGAAGGCGCUGACU [salish99_ex3_r3_051] (puzzle: Exclusion 3)	–	–	101 nM	31.7 nM	54.3 nM	–
